The text below walks through data of patent publication US20220048967A1 (published 2022).

One assay addresses T1, human GIP receptor (human, UniProt P48546 22-466).
T1 sequence (looked up): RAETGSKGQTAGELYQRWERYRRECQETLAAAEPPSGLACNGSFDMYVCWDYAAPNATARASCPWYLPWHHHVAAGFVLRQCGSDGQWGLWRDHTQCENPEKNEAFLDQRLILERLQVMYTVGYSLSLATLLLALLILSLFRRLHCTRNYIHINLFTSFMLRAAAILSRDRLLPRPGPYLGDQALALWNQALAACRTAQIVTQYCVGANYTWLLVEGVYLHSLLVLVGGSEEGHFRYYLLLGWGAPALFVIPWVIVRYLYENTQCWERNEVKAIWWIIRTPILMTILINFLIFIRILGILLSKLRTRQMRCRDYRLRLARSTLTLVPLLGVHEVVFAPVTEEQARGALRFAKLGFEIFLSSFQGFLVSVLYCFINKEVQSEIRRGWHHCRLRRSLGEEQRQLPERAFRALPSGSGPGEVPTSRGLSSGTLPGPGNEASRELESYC
Description: cell-based or functional assay.

Another assay addresses human GLP-1 receptor (human, UniProt P43220 24-463). Description: cell-based or functional assay.

Numbered stars: 1 amine (or outer) side, 2 acyl side, 3 side chain; on linkers, the order of the positions; unused ones are H or OH. Square brackets hold non-standard residues; d marks the D form. Side chains are listed from the residue outwards. Ends that are not written are not given here. * marks the point of attachment. C20 diacid = O=C(O)CCCCCCCCCCCCCCCCCCC(=O)*; γGlu = O=C(O)[C@H](CCC(=O)[*:2])N[*:1]; AEEA = NCCOCCOCC(=O)O; Aib = CC(C)(N)C(=O)O

B1: Example 23 (peptide)
peptide: Y[Aib]EGTFTSDK([AEEA-AEEA-γGlu-C20 diacid])SILLDKIAQ[Aib]AFIEYLIEGGPSSGAPPPS-NH2
modifications: N-terminus assumed
SMILES: CC[C@H](C)[C@H](NC(=O)[C@H](CCCCN)NC(=O)[C@H](CC(=O)O)NC(=O)[C@H](CC(C)C)NC(=O)[C@H](CC(C)C)NC(=O)[C@@H](NC(=O)[C@H](CO)NC(=O)[C@H](CCCCNC(=O)COCCOCCNC(=O)COCCOCCNC(=O)CC[C@H](NC(=O)CCCCCCCCCCCCCCCCCCC(=O)O)C(=O)O)NC(=O)[C@H](CC(=O)O)NC(=O)[C@H](CO)NC(=O)[C@@H](NC(=O)[C@H](Cc1ccccc1)NC(=O)[C@@H](NC(=O)CNC(=O)[C@H](CCC(=O)O)NC(=O)C(C)(C)NC(=O)[C@@H](N)Cc1ccc(O)cc1)[C@@H](C)O)[C@@H](C)O)[C@@H](C)CC)C(=O)N[C@@H](C)C(=O)N[C@@H](CCC(N)=O)C(=O)NC(C)(C)C(=O)N[C@@H](C)C(=O)N[C@@H](Cc1ccccc1)C(=O)N[C@H](C(=O)N[C@@H](CCC(=O)O)C(=O)N[C@@H](Cc1ccc(O)cc1)C(=O)N[C@@H](CC(C)C)C(=O)N[C@H](C(=O)N[C@@H](CCC(=O)O)C(=O)NCC(=O)NCC(=O)N1CCC[C@H]1C(=O)N[C@@H](CO)C(=O)N[C@@H](CO)C(=O)NCC(=O)N[C@@H](C)C(=O)N1CCC[C@H]1C(=O)N1CCC[C@H]1C(=O)N1CCC[C@H]1C(=O)N[C@@H](CO)C(N)=O)[C@@H](C)CC)[C@@H](C)CC
For the molecule B1, in the assay with human GIP receptor, the “hGIPR cAMP EC50 ratio” value is 0.754 and the “hGIPR cAMP Rel EC50” value stood at 0.204 nM. In the assay with human GLP-1 receptor, the “hGLP1R cAMP EC50 ratio” value amounted to 0.342 and the “hGLP1R cAMP Rel EC50” value was determined as 0.19 nM.

B2: Example 24 (peptide)
peptide: Y[Aib]EGTFTSDYK([AEEA-AEEA-γGlu-C20 diacid])ILLDKIAQ[Aib]AFIEYLIEGGPSSGAPPPS-NH2
modifications: N-terminus assumed
SMILES: CC[C@H](C)[C@H](NC(=O)[C@H](CCCCN)NC(=O)[C@H](CC(=O)O)NC(=O)[C@H](CC(C)C)NC(=O)[C@H](CC(C)C)NC(=O)[C@@H](NC(=O)[C@H](CCCCNC(=O)COCCOCCNC(=O)COCCOCCNC(=O)CC[C@H](NC(=O)CCCCCCCCCCCCCCCCCCC(=O)O)C(=O)O)NC(=O)[C@H](Cc1ccc(O)cc1)NC(=O)[C@H](CC(=O)O)NC(=O)[C@H](CO)NC(=O)[C@@H](NC(=O)[C@H](Cc1ccccc1)NC(=O)[C@@H](NC(=O)CNC(=O)[C@H](CCC(=O)O)NC(=O)C(C)(C)NC(=O)[C@@H](N)Cc1ccc(O)cc1)[C@@H](C)O)[C@@H](C)O)[C@@H](C)CC)C(=O)N[C@@H](C)C(=O)N[C@@H](CCC(N)=O)C(=O)NC(C)(C)C(=O)N[C@@H](C)C(=O)N[C@@H](Cc1ccccc1)C(=O)N[C@H](C(=O)N[C@@H](CCC(=O)O)C(=O)N[C@@H](Cc1ccc(O)cc1)C(=O)N[C@@H](CC(C)C)C(=O)N[C@H](C(=O)N[C@@H](CCC(=O)O)C(=O)NCC(=O)NCC(=O)N1CCC[C@H]1C(=O)N[C@@H](CO)C(=O)N[C@@H](CO)C(=O)NCC(=O)N[C@@H](C)C(=O)N1CCC[C@H]1C(=O)N1CCC[C@H]1C(=O)N1CCC[C@H]1C(=O)N[C@@H](CO)C(N)=O)[C@@H](C)CC)[C@@H](C)CC
Regarding B2, in the assay with human GIP receptor, the “hGIPR cAMP EC50 ratio” value was found to be 0.228 and the “hGIPR cAMP Rel EC50” value amounted to 0.762 nM. For the same molecule, in the assay with human GLP-1 receptor, the “hGLP1R cAMP EC50 ratio” value came to 0.00416 and the “hGLP1R cAMP Rel EC50” value was found to be 13 nM.
